Experimental data from paper PMC10991500, “A multi-enzyme cascade for efficient production of D-p-hydroxyphenylglycine from L-tyrosine” (Bioresources and Bioprocessing, 2021).
Residue numbers refer to the chain shown, from its start. In names and notes the source's numbering stands.

B1: CgDAPDH^BC621 (Corynebacterium glutamicum ATCC 13032; D154G/H244N/Q150L/R195M/T169I) (protein)
chain: MTNIRVAIVGYGNLGRSVEKLIAKQPDMDLVGIFSRRATLDTKTPVFDVADVDKHADDVDVLFLCMGSATDIPEQAPKFAQFACTVDTYDNHRDIPRHRQVMNEAATAAGNVALVSTGWDPGMFSINRVYAAAVLAEHQQHTFWGPGLSLGHSGALRRIPGVQKAVQYILPSEDALEKARRGEAGDLTGKQTHKMQCFVVADAADHERIENDIRTMPDYFVGYEVEVNFIDEATFDSEHTGMPNGGHVITTGDTGGFNHTVEYILKLDRNPDFTASSQIAFGRAAHRMKQQGQSGAFTVLEVAPYLLSPENLDDLIARDV
notes: five-fold mutant BC621 in pET28a, recombinant in E. coli BL21(DE3), HisTrap purified
B2: CgDAPDH^BC621 (Corynebacterium glutamicum ATCC 13032; D120S/D154G/H244N/Q150L/R195M/T169P) (protein)
chain: B1 chain with D120S, I169P
notes: as for B1
B3: CgDAPDH^BC621 (Corynebacterium glutamicum ATCC 13032; D120S/D154G/H244N/Q150L/R195M/T169P/W144S) (protein)
chain: B1 chain with D120S, W144S, I169P
notes: as for B1
B4: CgDAPDH^BC621 (Corynebacterium glutamicum ATCC 13032; D154G/H244N/Q150L/R195M/T169P/W144S) (protein)
chain: B1 chain with W144S, I169P
notes: as for B1
B5: CgDAPDH^BC621 (Corynebacterium glutamicum ATCC 13032; D154G/H244N/Q150L/R195M/T169P) (protein)
chain: B1 chain with I169P
notes: as for B1
B6: PaMDH (Pseudomonas aeruginosa) (protein)
chain: MSQNLFNVEDYRKLAQKRLPKMVYDYLEGGAEDEYGVKHNRDVFQQWRFKPKRLVDVSRRSLQAEVLGKRQSMPLLIGPTGLNGALWPKGDLALAQAATKAGIPFVLSTASNMSIEDLARQCDGDLWFQLYVIHREIAQGMVLKALHSGYTTLVLTTDVAVNGYRERDLHNRFKMPMSYTPKVMLDGCLHPRWSLDLVRHGMPQLANFVSSQTSSLEMQAALMSRQMDASFNWEALRWLRDLWPHKLLVKGLLSAEDADHCIAEGADGVILSNHGGRQLDCAVSPMEVLAQSVAKTGKPVLIDSGFRRGSDIVKALALGAEAVLLGRATLYGLAARGETGVDEVLTLLKADIDRTLAQIGCPDITSLSPDYLQSEGVTSTAPVDHLIGKGTHA
notes: recombinant in E. coli BL21(DE3), HisTrap purified

What was measured:
[1] = system: T1, PmL-AAD; assay: initial rates by HPLC, Michaelis-Menten fit; format: biochemical, Proteus mirabilis; settings: 50 mM Tris-HCl pH 8.0, 30 °C; substrate 1-20 mM
T1 construct: recombinant in E. coli BL21(DE3), Tween 80 solubilised, HisTrap purified
Source text: initial rates by HPLC, Michaelis-Menten fit on PmL-AAD

[2] = substrate: O=C(O)C(=O)c1ccc(O)cc1; assay: initial rates of reductive amination, HPLC, Michaelis-Menten fit; format: biochemical, Corynebacterium glutamicum; settings: 0.5 mM NADPH, 10 mM NH4Cl, 50 mM Tris-HCl pH 8.0, 30 °C, HPGA 1-20 mM
Source text: initial rates of reductive amination, HPLC, Michaelis-Menten fit on CgDAPDH^BC621

[3] = substrate: O=C(O)[C@@H](O)c1ccc(O)cc1; assay: initial rates by HPLC, Michaelis-Menten fit; format: biochemical, Pseudomonas aeruginosa; settings: 0.5 mM NADP+, 50 mM Tris-HCl pH 8.0, 30 °C, substrate 1-20 mM
Source text: initial rates by HPLC, Michaelis-Menten fit on PaMDH

Molecule | Km [1] [mM] | Km [2] [mM] | kcat [2] [s⁻¹] | kcat/Km [2] [M⁻¹ s⁻¹] | Km [3] [mM] | kcat [3] [s⁻¹] | kcat/Km [3] [M⁻¹ s⁻¹]
N[C@@H](Cc1ccc(O)cc1)C(=O)O [L-tyrosine] | 2.94 ± 1.04 |  |  |  |  |  | 
B1 |  | 20.37 ± 0.19 | 0.00317 ± 0.00617 | 0.15 |  |  | 
B2 |  | 7.83 ± 0.03 | 0.0243 ± 0.0117 | 3.17 |  |  | 
B3 |  | 2.48 ± 0.28 | 0.0448 ± 0.005 | 18 |  |  | 
B4 |  | 8.07 ± 0.68 | 0.0225 ± 0.0232 | 2.83 |  |  | 
B5 |  | 8.17 ± 0.89 | 0.0247 ± 0.00417 | 3 |  |  | 
B6 |  |  |  |  | 0.89 ± 0.91 | 0.123 ± 0.0122 | 179 ± 3.67
